Reference: the MegaScale stability set (Tsuboyama et al. 2023)

B1: 2M8U (parent)
chain: TKAQVIEAFKVFDRDGNGYVTVDYLRKVLNELGDMMPADEIEEMIYEADPQNSGYVQYETFVGMLFL

Variants of: B1
Experiment: folding stability dG (cDNA display proteolysis); higher = more stable
Conditions: PBS, room temperature

Variant | folding stability dG [kcal/mol]
TKAQVIEAFKVFDGDGNGYVTVDYLRKVLNELGDMMPADEIEEMIYEADPQNSGYVQYETFVGMLFL | 3.35
TKAQVIEAFKVFDHDGNGYVTVDYLRKVLNELGDMMPADEIEEMIYEADPQNSGYVQYETFVGMLFL | 3.68
TKAQVIEAFKVFDIDGNGYVTVDYLRKVLNELGDMMPADEIEEMIYEADPQNSGYVQYETFVGMLFL | 3.77
TKAQVIEAFKVFDKDGNGYVTVDYLRKVLNELGDMMPADEIEEMIYEADPQNSGYVQYETFVGMLFL | 3.55
TKAQVIEAFKVFDLDGNGYVTVDYLRKVLNELGDMMPADEIEEMIYEADPQNSGYVQYETFVGMLFL | 3.75
TKAQVIEAFKVFDMDGNGYVTVDYLRKVLNELGDMMPADEIEEMIYEADPQNSGYVQYETFVGMLFL | 3.69
TKAQVIEAFKVFDNDGNGYVTVDYLRKVLNELGDMMPADEIEEMIYEADPQNSGYVQYETFVGMLFL | 3.34
TKAQVIEAFKVFDPDGNGYVTVDYLRKVLNELGDMMPADEIEEMIYEADPQNSGYVQYETFVGMLFL | 3.5
TKAQVIEAFKVFDQDGNGYVTVDYLRKVLNELGDMMPADEIEEMIYEADPQNSGYVQYETFVGMLFL | 3.49
TKAQVIEAFKVFDSDGNGYVTVDYLRKVLNELGDMMPADEIEEMIYEADPQNSGYVQYETFVGMLFL | 3.58
TKAQVIEAFKVFDTDGNGYVTVDYLRKVLNELGDMMPADEIEEMIYEADPQNSGYVQYETFVGMLFL | 3.81
TKAQVIEAFKVFDVDGNGYVTVDYLRKVLNELGDMMPADEIEEMIYEADPQNSGYVQYETFVGMLFL | 3.83
TKAQVIEAFKVFDWDGNGYVTVDYLRKVLNELGDMMPADEIEEMIYEADPQNSGYVQYETFVGMLFL | 3.32
TKAQVIEAFKVFDYDGNGYVTVDYLRKVLNELGDMMPADEIEEMIYEADPQNSGYVQYETFVGMLFL | 3.69
TKAQVIEAFKVFDRAGNGYVTVDYLRKVLNELGDMMPADEIEEMIYEADPQNSGYVQYETFVGMLFL | 3.13
TKAQVIEAFKVFDRCGNGYVTVDYLRKVLNELGDMMPADEIEEMIYEADPQNSGYVQYETFVGMLFL | 2.9
TKAQVIEAFKVFDREGNGYVTVDYLRKVLNELGDMMPADEIEEMIYEADPQNSGYVQYETFVGMLFL | 3.55
TKAQVIEAFKVFDRFGNGYVTVDYLRKVLNELGDMMPADEIEEMIYEADPQNSGYVQYETFVGMLFL | 2.79
TKAQVIEAFKVFDRGGNGYVTVDYLRKVLNELGDMMPADEIEEMIYEADPQNSGYVQYETFVGMLFL | 2.75
TKAQVIEAFKVFDRHGNGYVTVDYLRKVLNELGDMMPADEIEEMIYEADPQNSGYVQYETFVGMLFL | 2.69

Variant | folding stability dG [kcal/mol]
TKAQVIEAFKVFDRIGNGYVTVDYLRKVLNELGDMMPADEIEEMIYEADPQNSGYVQYETFVGMLFL | 3.02
TKAQVIEAFKVFDRKGNGYVTVDYLRKVLNELGDMMPADEIEEMIYEADPQNSGYVQYETFVGMLFL | 2.32
TKAQVIEAFKVFDRLGNGYVTVDYLRKVLNELGDMMPADEIEEMIYEADPQNSGYVQYETFVGMLFL | 3.17
TKAQVIEAFKVFDRMGNGYVTVDYLRKVLNELGDMMPADEIEEMIYEADPQNSGYVQYETFVGMLFL | 3.03
TKAQVIEAFKVFDRNGNGYVTVDYLRKVLNELGDMMPADEIEEMIYEADPQNSGYVQYETFVGMLFL | 2.97
TKAQVIEAFKVFDRPGNGYVTVDYLRKVLNELGDMMPADEIEEMIYEADPQNSGYVQYETFVGMLFL | 2.51
TKAQVIEAFKVFDRQGNGYVTVDYLRKVLNELGDMMPADEIEEMIYEADPQNSGYVQYETFVGMLFL | 3.02
TKAQVIEAFKVFDRRGNGYVTVDYLRKVLNELGDMMPADEIEEMIYEADPQNSGYVQYETFVGMLFL | 1.81
TKAQVIEAFKVFDRSGNGYVTVDYLRKVLNELGDMMPADEIEEMIYEADPQNSGYVQYETFVGMLFL | 2.84
TKAQVIEAFKVFDRTGNGYVTVDYLRKVLNELGDMMPADEIEEMIYEADPQNSGYVQYETFVGMLFL | 2.97
TKAQVIEAFKVFDRVGNGYVTVDYLRKVLNELGDMMPADEIEEMIYEADPQNSGYVQYETFVGMLFL | 2.94
TKAQVIEAFKVFDRWGNGYVTVDYLRKVLNELGDMMPADEIEEMIYEADPQNSGYVQYETFVGMLFL | 2.76
TKAQVIEAFKVFDRYGNGYVTVDYLRKVLNELGDMMPADEIEEMIYEADPQNSGYVQYETFVGMLFL | 2.96
TKAQVIEAFKVFDRDANGYVTVDYLRKVLNELGDMMPADEIEEMIYEADPQNSGYVQYETFVGMLFL | 2.96
TKAQVIEAFKVFDRDCNGYVTVDYLRKVLNELGDMMPADEIEEMIYEADPQNSGYVQYETFVGMLFL | 2.92
TKAQVIEAFKVFDRDDNGYVTVDYLRKVLNELGDMMPADEIEEMIYEADPQNSGYVQYETFVGMLFL | 3.28
TKAQVIEAFKVFDRDENGYVTVDYLRKVLNELGDMMPADEIEEMIYEADPQNSGYVQYETFVGMLFL | 2.93
TKAQVIEAFKVFDRDFNGYVTVDYLRKVLNELGDMMPADEIEEMIYEADPQNSGYVQYETFVGMLFL | 2.75
TKAQVIEAFKVFDRDHNGYVTVDYLRKVLNELGDMMPADEIEEMIYEADPQNSGYVQYETFVGMLFL | 2.95
TKAQVIEAFKVFDRDINGYVTVDYLRKVLNELGDMMPADEIEEMIYEADPQNSGYVQYETFVGMLFL | 2.21
